System: HeLa cells
Assay: Relative fluorescence intensity of EmGFP having degron (DD tag and mutants) added, expressed from SeV in HeLa cells
Format: cell-based
Conditions: for Relative fluorescence intensity of EmGFP having degron added thereto, Shield1: 1 μM of Shield-1; for Relative fluorescence intensity of EmGFP having degron added thereto, Shield1 / Relative fluorescence intensity of EmGFP having degron added thereto, dTAG-13 / Relative fluorescence intensity of EmGFP having degron added thereto, (—): 3 days after infection, MOI=10; for Relative fluorescence intensity of EmGFP having degron added thereto, dTAG-13: 5 μM of dTAG-13; for Relative fluorescence intensity of EmGFP having degron added thereto, (—): no Shield-1 or dTAG-13; for Shield1/(—) / Shield1/dTAG-13: ratio of relative fluorescence intensities
Excerpt: The addition of a proteolytic tag (degron) to a P protein can facilitate the elimination of a SeV. A DD tag is a type of proteolytic tag (see, for example, US 2009/0215169 A). The DD tag (see SEQ ID NO: 18) is a protein of 107 amino acids in length, obtained by introducing F36V and L106P into FKBP12. Adding a low molecular weight compound, Shield-1 provides stabilization, and adding dTAG-13 also promotes degradation of the protein fused with the tag. In the present Example, a DD mutant (DDm; see SEQ ID NO: 19) having 11 mutations (4I, 18K, 36L, 501, 57K, 59F, 63A, 68L, 90V, 981, and 105R) in a DD tag was constructed. In the present Example, in order to investigate the proteolysis-promoting effect of the DDm, the DD tag and its mutants (including the DDm) were added to EmGFP at its C-terminal and loaded at the + position of the SeV vector (having the above mutation described in WO 2003/025570). HeLa cells were infected with the resulting SeV (MOI=10). On the day after infection, 1 μM of Shield-1 or 5 μM of dTAG-13 was added thereto, and the fluorescence from the cell was observed 3 days after infection. When a DDrs tag having the amino acid sequence set forth in SEQ ID NO: 28 was constructed and added to EmGFP at its C-terminal, the effect of stabilizing EmGFP by Sheild-1 was not obtained and the fluorescence intensity was only about 20% of that of a DD-tagged EmGFP (FIG. 8).

B1: DDm (protein)
chain: GVQIETISPGDGRTFPKKGQTCVVHYTGMLEDGKKLDSSRDRNKPFKFMIGKQEVIKGFEEGAAQMSLGQRAKLTISPDYAYGATGHPGVIPPHATLIFDVELLRPE
In the case of B1, the “Relative fluorescence intensity of EmGFP having degron added thereto, Shield1” value (37° C.) is reported as 140.4%, the “Relative fluorescence intensity of EmGFP having degron added thereto, dTAG-13” value (37° C.) is reported as 0.478% and the “Relative fluorescence intensity of EmGFP having degron added thereto, (—)” value (37° C.) is reported as 15.0%. The “Shield1/(—)” value (37° C.) was 9.39, the Shield1/dTAG-13 (37° C.) was 293.9 and the “Relative fluorescence intensity of EmGFP having degron added thereto, Shield1” value (38.5° C.) was 153%. The “Relative fluorescence intensity of EmGFP having degron added thereto, dTAG-13” value (38.5° C.) was 0.05%, the “Relative fluorescence intensity of EmGFP having degron added thereto, (—)” value (38.5° C.) was 2.5% and the “Shield1/(—)” value (38.5° C.) was 61.47. For the same molecule, the Shield1/dTAG-13 (38.5° C.) was 3181.7 and the “ratio of Shield1/dTAG-13 (in words)” value (Tables 6 and 7, 37° C. and 38.5° C.) was “significantly improved”.
